Target: TACC3 (UniProt Q9Y6A5)
Test: co-IP with anti-FLAG and anti-TACC3
Conditions: reference: wild-type stathmin1-FLAG; sites S16

## stathmin1 (from UniProt P16949) stathmin1 S16A-FLAG
  binding against the reference: lost
